One molecule from publication PMC5323315 (Molecular microbiology, 2017) can be followed below.

The assay deals with T1, DnaAΔC with a C-terminal hexa-histidine tag (B. subtilis, UniProt P05648 1-355).
T1 sequence (looked up): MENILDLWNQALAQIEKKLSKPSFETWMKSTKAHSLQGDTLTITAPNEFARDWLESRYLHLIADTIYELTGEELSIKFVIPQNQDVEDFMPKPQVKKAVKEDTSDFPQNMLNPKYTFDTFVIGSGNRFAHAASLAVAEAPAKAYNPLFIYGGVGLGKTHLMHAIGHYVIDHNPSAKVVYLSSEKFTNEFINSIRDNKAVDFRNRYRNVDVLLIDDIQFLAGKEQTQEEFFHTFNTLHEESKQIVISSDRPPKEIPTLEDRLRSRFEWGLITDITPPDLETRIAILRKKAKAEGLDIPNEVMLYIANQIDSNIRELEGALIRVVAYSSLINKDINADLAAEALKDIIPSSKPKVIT
Description: native gel or EMSA.

B1: Rok with a C-terminal hexa-histidine tag (natural protein, B. subtilis, UniProt O34857 1-191, looked up)
chain: MFNEREALRLRLEQLNEAEVKVIREYQIERDKIYAKLRELDRNGSPSEIKKDFRSEKKPDSLPVLAELAAQEIRSYQPQSQQQSVQPQLQSISSLPAGIPDGTTRRRRGTARPGSKAAKLREAAIKTLKRHNAAIKSSELQKEIEKESGLEIPNMTTFMQSLIKMYPEVKKPYRGQYILEGEIESAESANE
As to B1, the binding result is reported as “binds”.
